This is an account of results in patent publication US20220227848A1 (NORDIC BIOSCIENCE A S, published 2022).

For assay [1], the target named is T1, selection peptide GLPVPGCWHK, the last 10 amino acids of the C-terminus of type XXIII collagen alpha 1 chain ….
T1 construct: Synthetic peptide (Genscript); also called target peptide; standard peptide
T1 peptide: GLPVPGCWHK
Kind of assay: figure legend (FIG. 1A/1B), PRO-C23 competitive ELISA. On the procedure:
(§1) ELISA-plates used for the assay development were Streptavidin-coated from Roche (cat.: 11940279). All ELISA plates were analyzed with the ELISA reader from Molecular Devices, SpectraMax M, (CA, USA). The selected monoclonal antibody was labelled with horseradish peroxidase (HRP) using the Lightning link HRP labeling kit according to the instructions of the manufacturer (Innovabioscience, Babraham, Cambridge, UK). A 96-well streptavidin plate was coated with biotin-[…] (SEQ. ID No. 1) (Genscript, USA) and incubated 30 minutes at 20° C. 20 μL of standard peptide or samples were added to appropriate wells, followed by 100 μL of HRP conjugated monoclonal antibody 10F6, and incubated 20 hour at 4° C. Finally, 100 μL tetramethylbenzidine (TMB) (Kem-En-Tec cat.4380H) was added and the plate was incubated 15 minutes at […] in the dark. All the above incubation steps included shaking at 300 rpm. After each incubation step, the plate was washed five times. The TMB reaction was stopped by adding 100 μL of stopping solution (1% H₂SO₄) and measured at 450 nm with 650 nm as the reference.
(§2) Like type XXIII collagen, type XIII and XXV collagens are also transmembrane collagens and share highly similar sequences in their C-terminus (FIG. 1A). To fully investigate the specificity of the antibody, a series of peptides were synthesized and included in the inhibition test. […] (SEQ. ID No. 5) (FIG. 1B).
(An ELISA detects its analyte on a solid surface through an enzyme-linked reagent.)

Assay [2] deals with T2, elongated peptide GLPVPGCWHKA
T2 peptide: GLPVPGCWHKA
The experiment in a line: competitive ELISA (PRO-C23 assay), peptide inhibition test. On the procedure: as §1, §2

The target of assay [3] is T3, type XIII collagen C-terminal peptide GLPVQGCWNK
T3 construct: Synthetic peptide (Genscript); also called peptide from type XIII collagen; deselection peptide
T3 peptide: GLPVQGCWNK
Described as above. On the procedure:
as §1, §2

For assay [4], the target named is T4, type XXV collagen C-terminal peptide GLPMPGCWQK
T4 construct: Synthetic peptide (Genscript); also called peptide from type XXV collagen; deselection peptide
T4 peptide: GLPMPGCWQK
Described as above. The procedure: as §1, §2

The target in assay [5] is T5, truncated peptide GLPVPGCWH
T5 peptide: GLPVPGCWH
The description is as above. On the procedure:
as §1, §2

B1: monoclonal antibody 10F6 (antibody, mouse IgG2b, kappa, V domains shown)
VH: EVKLVESGGGLVKPGGSLKLSCAASGFTFSSYAMSWVRQTPEKRLAWVASISTAGRTYYPDTVRGRITISRDNARNILYLQMSSLRSEDTAIYYCARPDYDYDGYINWGQGTLVTVSA
VL: DIVMTQAAFSNPVTLGTSAYISCRSSKSLLHSNGVTYLYWYLQKPGQSPQLLIYQMSNLASGVPDRFSSSGSGTDFTLRISRVEAEDVGVYYCAQNLELPLTFGAGTKLELKR
notes: Mouse (Balb/C) hybridoma antibody purified on an IgG column; also called PRO-C23 antibody 10F6; PRO-C23 antibody
Regarding B1, the binding result is reported as “binds” in assay [1]; “no binding” in assay [2]; “no binding” in assay [3]; “no binding” in assay [4]; “no binding” in assay [5].
